Reference: PMC6527236

What was measured:
[1] = tested on: φ29 SSB Y50A (Bacillus subtilis phage φ29); test: EMSA; details: 60 μM SSB, 10 mM Mg2+, EMSA: 12 mM Tris-HCl pH 7.5, 10 mM MgCl2, 1 mM DTT, 4% glycerol, 0.1 mg/ml BSA, 3 nM DNA, 15 min, 4 °C, unwinding: 50 mM Tris-HCl pH 7.5, 4% glycerol
[2] = tested on: φ29 SSB Y57A (Bacillus subtilis phage φ29); test: EMSA; details: 60 μM SSB, 10 mM Mg2+, more retarded band at the highest concentration only, EMSA: 12 mM Tris-HCl pH 7.5, 10 mM MgCl2, 1 mM DTT, 4% glycerol, 0.1 mg/ml BSA, 3 nM DNA, 15 min, 4 °C, unwinding: 50 mM Tris-HCl pH 7.5, 4% glycerol
[3] = tested on: φ29 SSB Y50A (Bacillus subtilis phage φ29); test: unwinding (oligonucleotide displacement gel); details: 80 μM SSB, no Mg2+ listed, helix destabilization, indirect binding read-out, EMSA: 12 mM Tris-HCl pH 7.5, 10 mM MgCl2, 1 mM DTT, 4% glycerol, 0.1 mg/ml BSA, 3 nM DNA, 15 min, 4 °C, unwinding: 50 mM Tris-HCl pH 7.5, 4% glycerol
[4] = tested on: φ29 SSB Y57A (Bacillus subtilis phage φ29); test: unwinding (oligonucleotide displacement gel); details: 80 μM SSB, no Mg2+ listed, helix destabilization, indirect binding read-out, EMSA: 12 mM Tris-HCl pH 7.5, 10 mM MgCl2, 1 mM DTT, 4% glycerol, 0.1 mg/ml BSA, 3 nM DNA, 15 min, 4 °C, unwinding: 50 mM Tris-HCl pH 7.5, 4% glycerol

| Substance | binding signal (% of wild-type binding) [1] | binding signal (% of wild-type binding) [2] | binding signal (% of wild-type 17mer displacement) [3] | binding signal (% of wild-type 17mer displacement) [4] |
| --- | --- | --- | --- | --- |
| 216mer yshC fragment, heat denatured | 96 | 17 | – | – |
| M13mp18 ssDNA annealed to 17mer | – | – | 97 | 17 |
